Tested on: MS2 coat protein
Test: apparent KD of MS2 coat protein; designed switch direction (-1 OFF switch, 1 ON switch): -1; higher = weaker reporter binding
Procedure, shortened: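 Designed RNA switches with common flanks were transcribed on Illumina chips by stalled E. coli RNA polymerase and titrated with SNAP-549-labelled MS2 coat protein, from 0.7 or 1.5 nM doubling to 3 µM, in Tris-HCl pH 7.5 buffer with KCl, MgCl2, BSA, DTT, tRNA and Tween-20. Steps lasted 0.8–1.5 h (lowest) to 10–20 min (highest). Titrations ran without input, with 200 uM small-molecule ligand, or with an oligonucleotide input. Normalised cluster fluorescence was curve-fitted, and apparent KD is the per-design median over clusters.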

[1] = Eterna round: R95, input ligand: microRNA oligo, concentration not stated
[2] = input ligand: microRNA oligo, concentration not stated
[3] = Eterna round: R95, input ligand: FMN 200 uM
[4] = Eterna round: R95, input ligand: none

Sequence | apparent KD of MS2 coat protein (input ligand: FMN 200 uM) [µM] | apparent KD of MS2 coat protein (input ligand: none) [µM] | apparent KD of MS2 coat protein [1] [µM] | apparent KD of MS2 coat protein [2] [µM] | apparent KD of MS2 coat protein [3] [µM] | apparent KD of MS2 coat protein [4] [µM]
GAUCCUAGUGUCAGGAUAUGCGAACAAACGCCAAAGCAGAAGGGACUUGAGGAUCACCCAAGUCGCGAUGCGAC [Arbiaran] (Eterna round: R97, puzzle: Brourd's mod of Exclusion 4) | 0.257 | 0.0451 | – | – | – | –
CUGUAAAGGAAGGAUAUGCUAGACGAAAGUCUAGCAGAAGGUCCUACAUGAGGAUCACCCAUGUGGCCUCACAG [Mat - Exclusion 6 - Eli Mod - D50] (Eterna round: R97, puzzle: Exclusion 6) | 1.5 | 0.274 | – | – | – | –
UGCAAGCUUUUAAGAUCCUACAUGAGGAUCACCCAUGUGGCUCGUCUUAUACGUACUGUGACGAAAGUCACGGUACG [JL TOV1 3.98] (Eterna round: R97, puzzle: Sensor, turn-off variant 1) | 0.0254 | 0.0228 | – | – | – | –
ACUAGAUGAGGAUAUGCACAUUUUAGUGUUCCUCUAGAUUAACAUGAGGAUCACCCAUGUAGAAGGCGUCAUUU [Exclusion 2 - 13] (puzzle: Exclusion 2) | – | – | 0.0697 | – | – | –
UUUUACAUAGGAUAUAGUUGCUUUUACAUGAGGAUCACCCAUGUCUCUCCUCUCUCUCUUCUAGAAGGAUGUUUCU [JR_E5_Sub011] (puzzle: Exclusion 5) | – | – | 0.0533 | – | – | –
CUCCGCCGCAGAGGAUAUGGAUGUCGGAGACAUGAGGAUCACCCAUGUAUCCUGUCGAUGAGUACCCAGAAGGUUGUCACGCAU [Eternabot solution 49] (Eterna round: R96, puzzle: Exclusion NG 2) | 0.0264 | 0.0261 | – | 0.026 | – | –
AAGAAACAUGAGGAUCACCCAUGUGAGGAUAUGACCAAGAAAAGAAAAGAAAGAAGAAUCAGAAGGCACAAAGG [salish99-ex1_r3_051] (puzzle: Exclusion 1) | – | – | 0.0472 | – | 0.0477 | 0.0702
AAAUACAGGUAAAGAUUCUACAUGAGGAUCACCCAUGUGCUCGUCUUAUAAAGUACUAUCACGAAAGUGAUAGUACA [Sensor 3, v1 - 40] (puzzle: Sensor v3, turn-off variant 1) | – | – | 0.169 | – | 0.0259 | 0.0216
UUAAUUAAUUGACUGCAAGAUCAACAUGAGGAUCACCCAUGUGAGGAUAUCAGCUCGUUUAGAGCUGAGAAGGCACAAGCAGUC [ExNG3/16-A2] (Eterna round: R96, puzzle: Exclusion NG 3) | 0.0536 | 0.0176 | – | 0.0167 | – | –
CUUUUGUGAGGAUAUUAGUAGUAAAUAAAUAAAAUUACUACUGAGAAGGUACAUGAGGAUCACCCAUGUUCCUC [salish99_ex4_r3_044] (puzzle: Exclusion 4) | – | – | 0.0158 | – | – | –
AGAUGGCGAGGAUAUACAUGAGGAUCACCCAUGUGAAGAGAAAGAGUGAGGAAGAAAAGUAGAAGGCGCUGUCA [Mat - Exclusion 3 - Mod of Salish D29] (puzzle: Exclusion 3) | – | – | 0.0997 | – | 0.897 | 0.0882
GUAAUUAUAUAGGAUAUCGAUUUUAUUAUUUAACGAGAAGGAUGAACAUGAGGAUCACCCAUGUGGUAUCAUGG [JL-ex6-3.05] (puzzle: Exclusion 6) | – | – | 0.138 | – | – | –
CUUCACCCACCAGAGCUCACCCACAAACCUGCCCUGGUGACAUGAGGAUCACCCAUGUUUUUUGCCCGUCUUAUCUU [Diletibi] (puzzle: Sensor v3, turn-off variant 2) | – | – | 0.241 | – | 0.042 | 0.0468
CUUUGCACGCUGCGGUCCUACAUGAGGAUCACCCAUGUGGUCUGGUGGCGUGGGUCGCCGGACUUGGCUCGUCUUGG [salish99_S_TOV1_R5_042] (Eterna round: R97, puzzle: Sensor, turn-off variant 1) | 0.0151 | 0.0157 | – | – | – | –
CUGUACUGAGGAUAUACAUGAGGAUCACCCAUGUGUCCCAGCUAGGAAACUAGCAAAGGUAGAAGGCAGUACAG [Mat - Exclusion 3 - Eli Mod - D57] (Eterna round: R97, puzzle: Exclusion 3) | 0.302 | 0.0226 | – | – | – | –
GGUUGGCGAGGAUAUACAUGAGGAUCACCCAUGUGAGAGAAUAAGUGAGGAAAGAAAAGUAGAAGGCGCUGACG [Mat - Exclusion 3 - Mod of Salish D52] (puzzle: Exclusion 3) | – | – | 0.0445 | – | 0.117 | 0.0551
GGUUUUUCUGAGGAUAUUGCAUCACCCGAUUUAUAAGAAGGCAGAACAUGAGGAUCACCCAUGUGGGUCUCUAG [Bingo-Bango-27] (Eterna round: R97, puzzle: Exclusion 6) | 0.0244 | 0.0157 | – | – | – | –

Sequence | apparent KD of MS2 coat protein (input ligand: FMN 200 uM) [µM] | apparent KD of MS2 coat protein (input ligand: none) [µM] | apparent KD of MS2 coat protein [1] [µM] | apparent KD of MS2 coat protein [2] [µM] | apparent KD of MS2 coat protein [3] [µM] | apparent KD of MS2 coat protein [4] [µM]
ACAUGUAAUGCAGGAUAUGGGACACAUGAGGAUCACCCAUGUUACCAUAUGUAAUGCUAAGAGUCUCAGAAGGGUAUGUACAUG [Ex NG2 #47] (Eterna round: R96, puzzle: Exclusion NG 2) | 0.0086 | 0.0156 | – | 0.0122 | – | –
UAACUUUUUGUAAGGAUAUCGGUCCCAAGGGACAACGAGAAGGUACAUGAGGAUCACCCAUGUGAAAUAAGAAU [Mod of Zala 20 - Jieux - Brourd's Mod of Exclusion 4] (Eterna round: R97, puzzle: Brourd's mod of Exclusion 4) | 0.154 | 0.0227 | – | – | – | –
UAUUAACAAGUAAGAUCCAACAUGAGGAUCACCCAUGUGCUCGUCUUAUAAGGUACUGUGACGAAAGUCACGGUACC [Eli 87 v1] (Eterna round: R97, puzzle: Sensor, turn-off variant 1) | 0.0212 | 0.0218 | – | – | – | –
AGGUCCUUCUGGAGACAUGAGGAUCACCCAUGUCGAGUCAGCGAGGAUAUCGGUUAAUAAUGUGAUGAGAAGGCGCAGACCGAU [Ex NG3 #53] (Eterna round: R96, puzzle: Exclusion NG 3) | 0.0155 | 0.0113 | – | 0.00855 | – | –
GUGCGGUGAGGAUAUACGUAGGUGAAAAUCUGUGUGUUCCUACAUGAGGAUCACCCAUGUAGAAGGCAUGUCAC [LRO-Excl2-14] (puzzle: Exclusion 2) | – | – | 0.0476 | – | – | –
UAAACAUGGAUAUAACAGUACAUGAGGAUCACCCAUGUUAAUAUGAUAAAUUAUAACAAGUUUUUUUGUCGUCUUAA [Feeding at the Trough] (Eterna round: R97, puzzle: Sensor, turn-off variant 1) | 0.047 | 0.19 | – | – | – | –
UUCGUGCAGCUUUGCUGUACGAGUACAUGAGGAUCACCCAUGUAGGAUAUGGUACGCUUUGCGUGCUAGAAGGAUAUGUGUAGC [salish99_ExNG3_r04_504] (Eterna round: R96, puzzle: Exclusion NG 3) | – | – | – | 0.0257 | – | –
GCUCGAAGGAGUGGGAGCAACAUGAGGAUCACCCAUGUGCGGCUAUUUCAUGCUCGUCUUAAAGCUUUGCCCUAGCC [Eternabot (Original) Solution 40] (Eterna round: R97, puzzle: Sensor, turn-off variant 1) | 0.0172 | 0.0185 | – | – | – | –
GUUUUGGGAGGAUAUAUGUGGAUAAUUUUUAUAUGAAAUUUACAUGAGGAUCACCCAUGUAGAAGGUCUAGAGC [-18.5, -15.1 kcal, 31% A] (Eterna round: R97, puzzle: Exclusion 2) | 0.476 | 0.261 | – | – | – | –
GGUGCGUAUGUGAGGAUAUGCUGGUCCUUGGAUCAGCAGAAGGCACAUGAGGAUCACCCAUGUGGUGUCGUACU [salish99_Bmod_Ex4_013] (puzzle: Brourd's mod of Exclusion 4) | – | – | 0.266 | – | – | –
CCCACAAGCUUUUUGCUCGACAUGAGGAUCACCCAUGUAAAAUGGGUAAAUUUAAAUUGAAACAAUUUAAAUUUGGG [-20.1, -44.2 kcal, A 35%] (Eterna round: R97, puzzle: Sensor, turn-off variant 1) | 0.262 | 0.222 | – | – | – | –
AACCUGAGGCAAAGCUUUAGGUGUACAUGAGGAUCACCCAUGUAGGAUAUGGUAAGCAAAGCUUACCAGAAGGACAUAAUGAUA [Mat - Exclusion NG 3 - Mod of JL - D49] (Eterna round: R96, puzzle: Exclusion NG 3) | 0.0865 | 0.0594 | – | 0.0376 | – | –
GGUAGAGUGGUAGGAUAUCCGACUGAAACAGACGGAGAAGGACCACAGUCACUGGGUCCAAAUAUAAUAAACAAUAAAUCUACC [pwkr exNG1 F6.1] (Eterna round: R96, puzzle: Exclusion NG 1) | 0.307 | 0.331 | – | 0.212 | – | –
CCUCGUAACUAGGAUAUCCGAAAUAAGCGAGGAGGAGAAGGAGUUACAUGAGGAUCACCCAUGUGAUAUAAAGA [Orisxe] (puzzle: Exclusion 6) | – | – | 0.0155 | – | 0.0469 | 0.0174
UGCAUGCUAGGAUAUACGGGACAUUAGGGUUCGUCGUAUGGACAUGAGGAUCACCCAUGUAGAAGGAGCGUGCU [Mod4 of JL-ex2-2.15 mat747 mod] (puzzle: Exclusion 2) | – | – | 0.0187 | – | – | –
GGAUAAAAGACAGGAUAUACGCACCACUAACGAGUAGAAGGGUCACAUGAGGAUCACCCAUGUGAGUUCUCAAUAAGAAACACG [Prohibition 67 - Jieux - Exclusion NG 1] (Eterna round: R96, puzzle: Exclusion NG 1) | 0.0142 | 0.0173 | – | 0.0169 | – | –
GCAAGCUUAAUCAGUAUGAACAUGAGGAUCACCCAUGUAUAAGGUAAUCCUUUUGGGCCCUUUAUUACUCGUCUUAU [JR_STOV1_Sub028] (Eterna round: R97, puzzle: Sensor, turn-off variant 1) | 0.322 | 0.405 | – | – | – | –

Source: the supplement of paper PMC9170038
